# Test results taken from patent US20240141072A1 (published 2024).
# T1: biotinylated human DLL3 protein expressed as a human IgG1 fusion protein (human, UniProt Q9NYJ7 27-492, limits assumed, biotinylated)
# T1 sequence: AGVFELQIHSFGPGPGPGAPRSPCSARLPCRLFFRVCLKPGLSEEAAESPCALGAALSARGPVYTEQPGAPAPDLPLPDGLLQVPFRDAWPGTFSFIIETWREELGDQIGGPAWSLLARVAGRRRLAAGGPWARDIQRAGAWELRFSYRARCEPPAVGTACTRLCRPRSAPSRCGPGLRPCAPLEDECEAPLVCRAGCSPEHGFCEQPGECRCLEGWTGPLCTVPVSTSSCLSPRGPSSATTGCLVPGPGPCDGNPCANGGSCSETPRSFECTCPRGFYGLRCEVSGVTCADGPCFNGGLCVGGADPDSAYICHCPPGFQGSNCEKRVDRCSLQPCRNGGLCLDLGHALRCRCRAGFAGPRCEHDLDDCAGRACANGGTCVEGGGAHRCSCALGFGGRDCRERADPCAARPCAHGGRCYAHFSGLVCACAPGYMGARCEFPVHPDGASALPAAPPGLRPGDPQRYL
# Biological target: T1, biotinylated human DLL3 protein …
# Experiment: Octet BLI, single 50 nM
# Method in brief: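 Analyte: trispecific anti-DLL3 proteins in conditioned medium, concentration known; ligand: captured DLL3 fusion; output: binding affinity.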
row,Kd [nM],Binder
1,21,"4H01 anti-DLL3 trispecific protein (other, not shown: linker 1808, anti-albumin sdAb, linker 1808, anti-CD3 fragment, His6 1819) EVQLVESGGGLVQPGGSLTLSCAASGSSVSFLSMAWYRQAPGKKRELVAGISANGSTDYYDSVKGRFTISRDNAKNSVYLQMNSLRAEDTAVYYCYAYRWRTRYTYWGQGTLVTVSS"
2,7.6,"4G08 anti-DLL3 trispecific protein (other, not shown: linker 1808, anti-albumin sdAb, linker 1808, anti-CD3 fragment, His6 1819) EVQLVESGGGLVQPGGSLTLSCAASGSSVRFLSMAWYRQAPGKKRELVAGISTDGSTDYIDSVKGRFTISRDNAKNSVYLQMNSLRAEDTAVYYCYAYRWTTRYRYWGQGTLVTVSS"
3,9.7,"4G05 anti-DLL3 trispecific protein (other, not shown: linker 1808, anti-albumin sdAb, linker 1808, anti-CD3 fragment, His6 1819) EVQLVESGGGLVQPGGSLTLSCAASGSSVSILSMAWYRQAPGKKRELVAGISADGSTIYIDSVKGRFTISRDNAKNSVYLQMNSLRAEDTAVYYCYAYRWHTRYTYWGQGTLVTVSS"
4,7.5,"4G011 anti-DLL3 trispecific protein (other, not shown: linker 1808, anti-albumin sdAb, linker 1808, anti-CD3 fragment, His6 1819) EVQLVESGGGLVQPGGSLTLSCAASGSSVRFLSMAWYRQAPGKKRELVAGISADGSTDYIGSVKGRFTISRDNAKNSVYLQMNSLRAEDTAVYYCYAYRWSTRYTYWGQGTLVTVSS"
5,13,"4H03 anti-DLL3 trispecific protein (other, not shown: linker 1808, anti-albumin sdAb, linker 1808, anti-CD3 fragment, His6 1819) EVQLVESGGGLVQPGGSLTLSCAASGSRVSFLSMAWYRQAPGKKRELVAGISADGSTSYIDSVKGRFTISRDNAKNSVYLQMNSLRAEDTAVYYCYAYRWTTRYTYWGQGTLVTVSS"
6,64,"4H05 anti-DLL3 trispecific protein (other, not shown: linker 1808, anti-albumin sdAb, linker 1808, anti-CD3 fragment, His6 1819) EVQLVESGGGLVQPGGSLTLSCAASGSSVSRLSMAWYRQAPGKKRELVAGISARGSTDYIDSVKGRFTISRDNAKNSVYLQMNSLRAEDTAVYYCYAYRWTTRSTYWGQGTLVTVSS"
7,18,"4H06 anti-DLL3 trispecific protein (other, not shown: linker 1808, anti-albumin sdAb, linker 1808, anti-CD3 fragment, His6 1819) EVQLVESGGGLVQPGGSLTLSCAASGRSVSFLSMAWYRQAPGKKRELVAGISADGSTIYIDSVKGRFTISRDNAKNSVYLQMNSLRAEDTAVYYCYAYRWTTRYTYWGQGTLVTVSS"
8,15,"4G02 anti-DLL3 trispecific protein (other, not shown: linker 1808, anti-albumin sdAb, linker 1808, anti-CD3 fragment, His6 1819) EVQLVESGGGLVQPGGSLTLSCAASGSSVKFLSMAWYRQAPGKKRELVAGISRDGSTDYIDSVKGRFTISRDNAKNSVYLQMNSLRAEDTAVYYCYAYRWTTRHTYWGQGTLVTVSS"
9,9.9,"4G010 anti-DLL3 trispecific protein (other, not shown: linker 1808, anti-albumin sdAb, linker 1808, anti-CD3 fragment, His6 1819) EVQLVESGGGLVQPGGSLTLSCAASGHSVSFLSMAWYRQAPGKKRELVAGISADGSTDYIASVKGRFTISRDNAKNSVYLQMNSLRAEDTAVYYCYAYRWSTRYTYWGQGTLVTVSS"
10,3.6,"4G01 anti-DLL3 trispecific protein (other, not shown: linker 1808, anti-albumin sdAb, linker 1808, anti-CD3 fragment, His6 1819) EVQLVESGGGLVQPGGSLTLSCAASGSSVRFLSMAWYRQAPGKKRELVAGISADGSTVYIDSVKGRFTISRDNAKNSVYLQMNSLRAEDTAVYYCYAYRWPTRYTYWGQGTLVTVSS"
11,18,"4G07 anti-DLL3 trispecific protein (other, not shown: linker 1808, anti-albumin sdAb, linker 1808, anti-CD3 fragment, His6 1819) EVQLVESGGGLVQPGGSLTLSCAASGSSVSFLSVAWYRQAPGKKRELVAGISANGSTDYIDSVKGRFTISRDNAKNSVYLQMNSLRAEDTAVYYCYAYRWTNRYTYWGQGTLVTVSS"
12,8.8,"4G09 anti-DLL3 trispecific protein (other, not shown: linker 1808, anti-albumin sdAb, linker 1808, anti-CD3 fragment, His6 1819) EVQLVESGGGLVQPGGSLTLSCAASGSRVSFLSMAWYRQAPGKKRELVAGISYDGSTDYIDSVKGRFTISRDNAKNSVYLQMNSLRAEDTAVYYCYAYRWTTRRTYWGQGTLVTVSS"
13,20,"4G03 anti-DLL3 trispecific protein (other, not shown: linker 1808, anti-albumin sdAb, linker 1808, anti-CD3 fragment, His6 1819) EVQLVESGGGLVQPGGSLTLSCAASGSSVKFLSMAWYRQAPGKKRELVAGISADGSTDYIHSVKGRFTISRDNAKNSVYLQMNSLRAEDTAVYYCYAYRWTRRYTYWGQGTLVTVSS"

# The remaining lines, values behind:
row,Binder,Kd [nM]
1,"4D04 anti-DLL3 trispecific protein (other, not shown: linker 1808, anti-albumin sdAb, linker 1808, anti-CD3 fragment, His6 1819) EVQLVESGGGLVQPGGSLTLSCAASGSSVSFLSIAWYRQAPGKKRELVAGISKDGSTDYIDSVKGRFTISRDNAKNSVYLQMNSLRAEDTAVYYCYAYRWTTRMTYWGQGTLVTVSS",8.6
2,"4E08 anti-DLL3 trispecific protein (other, not shown: linker 1808, anti-albumin sdAb, linker 1808, anti-CD3 fragment, His6 1819) EVQLVESGGGLVQPGGSLTLSCAASGSSVKFLSMAWYRQAPGKKRELVAGISTDGSTDYIDSVKGRFTISRDNAKNSVYLQMNSLRAEDTAVYYCYAYKWTTRYTYWGQGTLVTVSS",7.2
3,"4D05 anti-DLL3 trispecific protein (other, not shown: linker 1808, anti-albumin sdAb, linker 1808, anti-CD3 fragment, His6 1819) EVQLVESGGGLVQPGGSLTLSCAASGSSSSFLSMAWYRQAPGKKRELVAGISADGSTVYIDSVKGRFTISRDNAKNSVYLQMNSLRAEDTAVYYCYAYRWTTRRTYWGQGTLVTVSS",6.5
4,"4D06 anti-DLL3 trispecific protein (other, not shown: linker 1808, anti-albumin sdAb, linker 1808, anti-CD3 fragment, His6 1819) EVQLVESGGGLVQPGGSLTLSCAASGSSVKFLSMAWYRQAPGKKRELVAGISPDGSTDYIDSVKGRFTISRDNAKNSVYLQMNSLRAEDTAVYYCYAYRWTTRYRYWGQGTLVTVSS",7.5
5,"4E01 anti-DLL3 trispecific protein (other, not shown: linker 1808, anti-albumin sdAb, linker 1808, anti-CD3 fragment, His6 1819) EVQLVESGGGLVQPGGSLTLSCAASGSSVSFLSVAWYRQAPGKKRELVAGISRDGSTDYIDSVKGRFTISRDNAKNSVYLQMNSLRAEDTAVYYCYAYRWRTRYTYWGQGTLVTVSS",11
6,"4D010 anti-DLL3 trispecific protein (other, not shown: linker 1808, anti-albumin sdAb, linker 1808, anti-CD3 fragment, His6 1819) EVQLVESGGGLVQPGGSLTLSCAASGSSVSFLSMAWYRQAPGKKRELVAGISADGSTDYIHSVKGRFTISRDNAKNSVYLQMNSLRAEDTAVYYCYAYRWRTRYTYWGQGTLVTVSS",9.9
7,"4F03 anti-DLL3 trispecific protein (other, not shown: linker 1808, anti-albumin sdAb, linker 1808, anti-CD3 fragment, His6 1819) EVQLVESGGGLVQPGGSLTLSCAASGSSVQFLSMAWYRQAPGKKRELVAGISYDGSTDYIDSVKGRFTISRDNAKNSVYLQMNSLRAEDTAVYYCYAYRWRTRYTYWGQGTLVTVSS",12
8,"4F011 anti-DLL3 trispecific protein (other, not shown: linker 1808, anti-albumin sdAb, linker 1808, anti-CD3 fragment, His6 1819) EVQLVESGGGLVQPGGSLTLSCAASGSKVSFLSMAWYRQAPGKKRELVAGISADGSKDYIDSVKGRFTISRDNAKNSVYLQMNSLRAEDTAVYYCYAYRWTTRYTYWGQGTLVTVSS",8.2
9,"4D08 anti-DLL3 trispecific protein (other, not shown: linker 1808, anti-albumin sdAb, linker 1808, anti-CD3 fragment, His6 1819) EVQLVESGGGLVQPGGSLTLSCAASGSSVNFLSMAWYRQAPGKKRELVAGISADGSTHYIDSVKGRFTISRDNAKNSVYLQMNSLRAEDTAVYYCYAYRWLTRYTYWGQGTLVTVSS",5.9
10,"4E09 anti-DLL3 trispecific protein (other, not shown: linker 1808, anti-albumin sdAb, linker 1808, anti-CD3 fragment, His6 1819) EVQLVESGGGLVQPGGSLTLSCAASGSSVSFLSSAWYRQAPGKKRELVAGISADGSTLYIDSVKGRFTISRDNAKNSVYLQMNSLRAEDTAVYYCYAYRWTTRSTYWGQGTLVTVSS",9.1
11,"4F08 anti-DLL3 trispecific protein (other, not shown: linker 1808, anti-albumin sdAb, linker 1808, anti-CD3 fragment, His6 1819) EVQLVESGGGLVQPGGSLTLSCAASGSKVSFLSMAWYRQAPGKKRELVAGISADGSTAYIDSVKGRFTISRDNAKNSVYLQMNSLRAEDTAVYYCYAYRWRTRYTYWGQGTLVTVSS",9
12,"4F09 anti-DLL3 trispecific protein (other, not shown: linker 1808, anti-albumin sdAb, linker 1808, anti-CD3 fragment, His6 1819) EVQLVESGGGLVQPGGSLTLSCAASGSRVSFLSMAWYRQAPGKKRELVAGISADGSTDYIESVKGRFTISRDNAKNSVYLQMNSLRAEDTAVYYCYAYRWTTRYTYWGQGTLVTVSS",8.8
13,"4E06 anti-DLL3 trispecific protein (other, not shown: linker 1808, anti-albumin sdAb, linker 1808, anti-CD3 fragment, His6 1819) EVQLVESGGGLVQPGGSLTLSCAASGTSVSFLSMAWYRQAPGKKRELVAGISADGSTDYIRSVKGRFTISRDNAKNSVYLQMNSLRAEDTAVYYCYAYRWTTRLTYWGQGTLVTVSS",10
14,"4E011 anti-DLL3 trispecific protein (other, not shown: linker 1808, anti-albumin sdAb, linker 1808, anti-CD3 fragment, His6 1819) EVQLVESGGGLVQPGGSLTLSCAASGSSVSFLSMAWYRQAPGKKRELVAGISATGSTDYIDSVKGRFTISRDNAKNSVYLQMNSLRAEDTAVYYCYAYRWSTRYTYWGQGTLVTVSS",13
15,"4F04 anti-DLL3 trispecific protein (other, not shown: linker 1808, anti-albumin sdAb, linker 1808, anti-CD3 fragment, His6 1819) EVQLVESGGGLVQPGGSLTLSCAASRSSVSFLSMAWYRQAPGKKRELVAGISTDGSTDYIDSVKGRFTISRDNAKNSVYLQMNSLRAEDTAVYYCYAYRWLTRYTYWGQGTLVTVSS",9.8
16,"4E07 anti-DLL3 trispecific protein (other, not shown: linker 1808, anti-albumin sdAb, linker 1808, anti-CD3 fragment, His6 1819) EVQLVESGGGLVQPGGSLTLSCAASGSRVSFLSMAWYRQAPGKKRELVAGISADGSTMYIDSVKGRFTISRDNAKNSVYLQMNSLRAEDTAVYYCYAYRWTTRLTYWGQGTLVTVSS",11
17,"4F010 anti-DLL3 trispecific protein (other, not shown: linker 1808, anti-albumin sdAb, linker 1808, anti-CD3 fragment, His6 1819) EVQLVESGGGLVQPGGSLTLSCAASGSSVSFLSMAWYRQAPGKKRELVAGISIDGSTDYIKSVKGRFTISRDNAKNSVYLQMNSLRAEDTAVYYCYAYRWTTRYRYWGQGTLVTVSS",5.8
18,"4F02 anti-DLL3 trispecific protein (other, not shown: linker 1808, anti-albumin sdAb, linker 1808, anti-CD3 fragment, His6 1819) EVQLVESGGGLVQPGGSLTLSCAASGSTVSFLSMAWYRQAPGKKRELVAGISHDGSTDYIDSVKGRFTISRDNAKNSVYLQMNSLRAEDTAVYYCYAYRWTTRYTYWGQGTLVTVSS",15
19,"4E010 anti-DLL3 trispecific protein (other, not shown: linker 1808, anti-albumin sdAb, linker 1808, anti-CD3 fragment, His6 1819) EVQLVESGGGLVQPGGSLTLSCAASGSSVKFLSMAWYRQAPGKKRELVAGISADGSTDYIDSVKGRFTISRDNAKNSVYLQMNSLRAEDTAVYYCYAYRWRTRYTYWGQGTLVTVSS",9
